Test results published in patent publication US20260008866A1 (published 2026).

What was measured:
Assay in all cases: ForteBio Octet (BLI)
[1] = molecular target: 20807
[2] = molecular target: 20809
[3] = molecular target: 20817
[4] = molecular target: 20814
[5] = molecular target: 20812

| Kd [1] [nM] | Kd [2] [nM] | Kd [3] [nM] | Kd [4] [nM] | Kd [5] [nM] | Binder |
| --- | --- | --- | --- | --- | --- |
| 0.58 | 1.53 | 0.347 | 0.325 |  | Human (ligand) LFTVTVPKELYIIEHGSNVTLECNFDTGSHVNLGAITASLQKVENDTSPHRERATLLEEQLPLGKASFHIPQVQVRDEGQYQCIIIYGVAWDYKYLTLKVKASYRKINTHILKVPETDEVELTCQATGYPLAEVSWPNVSVPANTSHSRTPEGLYQVTSVLRLKPPPGRNFSCVFWNTHVRELTLASIDLQSQMEPRTHPT |
| 0.25 | 0.253 | 0.283 | 0.31 | 0.312 | Cyno (Fc fusion) LFTVTVPKELYIIEHGSNATLECNFDTGSHVNLGAITASLQKVENDTSPHRERATLLEEQLSLGKALFHIPQVQVRDEGQYQCIIIYGVAWDYKYLTLKVKASYRKINTHILKVPETDEVELTCQATGYPLAEVSWPNISVPANTSHSRTPEGLYQVTSVLRLKPHPGRNFSCVFWNAQVRELTLASIDLQSQIEPRTHP |
